These are literature values, as cited in patent US20200069786A1, “COMPOSITION AND PROCESS FOR PREPARING VACCINE” (TREOS BIO ZRT., priority 2018, published 2020).

Like-named read-outs stand apart in the source and are kept apart here.

The data set concerns TSA.
[1] abbreviates: TSA expression rate in Esophageal.
Where [2] appears, read: TSA expression rate in GASTRIC cancer.
Setting [3] is: TSA expression rate in HEAD and NECK.
Setting [4] is: TSA expression rate in PROSTATE cancer.
[5] abbreviates: TSA expression rate in Cervical cancer.
[6] abbreviates: TSA expression rate in MELANOMA
[7] abbreviates: TSA expression rate in LUNG cancer.

B1: CCDC62 (protein, UniProt Q6P9F0 1-684, looked up)
Coiled-coil domain-containing …: MNPPAAFLAGRQNIGSEVEISTIEKQRKELQLLIGELKDRDKELNDMVAVHQQQLLSWEEDRQKVLTLEERCSKLEGELHKRTEIIRSLTKKVKALESNQMECQTALQKTQLQLQEMAQKATHSSLLSEDLEARNETLSNTLVELSAQVGQLQAREQALTTMIKLKDKDIIEAVNHIADCSGKFKMLEHALRDAKMAETCIVKEKQDYKQKLKALKIEVNKLKEDLNEKTTENNEQREEIIRLKQEKSCLHDELLFTVEREKRKDELLNIAKSKQERTNSELHNLRQIYVKQQSDLQFLNFNVENSQELIQMYDSKMEESKALDSSRDMCLSDLENNHPKVDIKREKNQKSLFKDQKFEAMLVQQNRSDKSSCDECKEKKQQIDTVFGEKSVITLSSIFTKDLVEKHNLPWSLGGKTQIEPENKITLCKIHTKSPKCHGTGVQNEGKQPSETPTLSDEKQWHDVSVYLGLTNCPSSKHPEKLDVECQDQMERSEISCCQKNEACLGESGMCDSKCCHPSNFIIEAPGHMSDVEWMSIFKPSKMQRIVRLKSGCTCSESICGTQHDSPASELIAIQDSHSLGSSKSALREDETESSSNKKNSPTSLLIYKDAPAFNEKASIVLPSQDDFSPTSKLQRLLAESRQMVTDLELSTLLPISHENLTGSATNKSEVPEESAQKNTFVSY
On to B1, for which the “TSA Expression Rate (ER)” value is 0% (HCC) and 0% (OVARIAN). The “Expression Rate (ER) %” value (TSA expression rate in CRC) is recorded as 13%; the “Expression Rate (ER) %” value under setting [1] is 21%; the “Expression Rate (ER) %” value under setting [2] is on record as 7%; the “Expression Rate (ER) %” value under setting [3] is reported as 12%; the “Expression Rate (ER) %” value (TSA expression rate in Kidney) was 25%; the “Expression Rate (ER) %” value under setting [4] is reported as 22%.

B2: KIF20A (protein, UniProt O95235 2-890, looked up)
Kinesin-like protein KIF20A: SQGILSPPAGLLSDDDVVVSPMFESTAADLGSVVRKNLLSDCSVVSTSLEDKQQVPSEDSMEKVKVYLRVRPLLPSELERQEDQGCVRIENVETLVLQAPKDSFALKSNERGIGQATHRFTFSQIFGPEVGQASFFNLTVKEMVKDVLKGQNWLIYTYGVTNSGKTHTIQGTIKDGGILPRSLALIFNSLQGQLHPTPDLKPLLSNEVIWLDSKQIRQEEMKKLSLLNGGLQEEELSTSLKRSVYIESRIGTSTSFDSGIAGLSSISQCTSSSQLDETSHRWAQPDTAPLPVPANIRFSIWISFFEIYNELLYDLLEPPSQQRKRQTLRLCEDQNGNPYVKDLNWIHVQDAEEAWKLLKVGRKNQSFASTHLNQNSSRSHSIFSIRILHLQGEGDIVPKISELSLCDLAGSERCKDQKSGERLKEAGNINTSLHTLGRCIAALRQNQQNRSKQNLVPFRDSKLTRVFQGFFTGRGRSCMIVNVNPCASTYDETLHVAKFSAIASQLVHAPPMQLGFPSLHSFIKEHSLQVSPSLEKGAKADTGLDDDIENEADISMYGKEELLQVVEAMKTLLLKERQEKLQLEMHLRDEICNEMVEQMQQREQWCSEHLDTQKELLEEMYEEKLNILKESLTSFYQEEIQERDEKIEELEALLQEARQQSVAHQQSGSELALRRSQRLAASASTQQLQEVKAKLQQCKAELNSTTEELHKYQKMLEPPPSAKPFTIDVDKKLEEGQKNIRLLRTELQKLGESLQSAERACCHSTGAGKLRQALTTCDDILIKQDQTLAELQNNMVLVKLDLRKKAACIAEQYHTVLKLQGQVSAKKRLGTNQENQQPNQQPPGKKPFLRNLLPRTPTCQSSTDCSPYARILRSRRSPLLKSGPFGKKY
Regarding B2, the “TSA Expression Rate (ER)” value (BRAIN) was 58%, the “TSA Expression Rate (ER)” value (LUNG) is given as 95%, the “TSA Expression Rate (ER)” value (OVARIAN) is given as 65% and the “TSA Expression Rate (ER)” value (PANCREATIC) is 63%. The “Expression Rate (ER) %” value is reported as 35% under setting [5], 15% under setting [1] and 64% under setting [6].

B3: PIWIL1 (protein, UniProt Q96J94 1-861, looked up)
Piwi-like protein 1: MTGRARARARGRARGQETAQLVGSTASQQPGYIQPRPQPPPAEGELFGRGRQRGTAGGTAKSQGLQISAGFQELSLAERGGRRRDFHDLGVNTRQNLDHVKESKTGSSGIIVRLSTNHFRLTSRPQWALYQYHIDYNPLMEARRLRSALLFQHEDLIGKCHAFDGTILFLPKRLQQKVTEVFSKTRNGEDVRITITLTNELPPTSPTCLQFYNIIFRRLLKIMNLQQIGRNYYNPNDPIDIPSHRLVIWPGFTTSILQYENSIMLCTDVSHKVLRSETVLDFMFNFYHQTEEHKFQEQVSKELIGLVVLTKYNNKTYRVDDIDWDQNPKSTFKKADGSEVSFLEYYRKQYNQEITDLKQPVLVSQPKRRRGPGGTLPGPAMLIPELCYLTGLTDKMRNDFNVMKDLAVHTRLTPEQRQREVGRLIDYIHKNDNVQRELRDWGLSFDSNLLSFSGRILQTEKIHQGGKTFDYNPQFADWSKETRGAPLISVKPLDNWLLIYTRRNYEAANSLIQNLFKVTPAMGMQMRKAIMIEVDDRTEAYLRVLQQKVTADTQIVVCLLSSNRKDKYDAIKKYLCTDCPTPSQCVVARTLGKQQTVMAIATKIALQMNCKMGGELWRVDIPLKLVMIVGIDCYHDMTAGRRSIAGFVASINEGMTRWFSRCIFQDRGQELVDGLKVCLQAALRAWNSCNEYMPSRIIVYRDGVGDGQLKTLVNYEVPQFLDCLKSIGRGYNPRLTVIVVKKRVNTRFFAQSGGRLQNPLPGTVIDVEVTRPEWYDFFIVSQAVRSGSVSPTHYNVIYDNSGLKPDHIQRLTYKLCHIYYNWPGVIRVPAPCQYAHKLAFLVGQSIHREPNLSLSNRLYYL
As to B3, the “TSA Expression Rate (ER)” value by setting is: (BRAIN) 76%; (BREAST) 100%; (HCC) 40%; (OVARIAN) 68%; (PANCREATIC) 71%. The “Expression Rate (ER) %” value runs as follows: (TSA expression rate in CRC) 48%; under setting [5], 83%; under setting [1], 70%; under setting [2], 76%; (TSA expression rate in Kidney) 52%; under setting [7], 15%. In addition, under setting [4], the “Expression Rate (ER) %” value was 4%.

B4: CTCFL (protein, UniProt Q8NI51 1-663, looked up)
Transcriptional repressor …: MAATEISVLSEQFTKIKELELMPEKGLKEEEKDGVCREKDHRSPSELEAERTSGAFQDSVLEEEVELVLAPSEESEKYILTLQTVHFTSEAVELQDMSLLSIQQQEGVQVVVQQPGPGLLWLEEGPRQSLQQCVAISIQQELYSPQEMEVLQFHALEENVMVASEDSKLAVSLAETTGLIKLEEEQEKNQLLAERTKEQLFFVETMSGDERSDEIVLTVSNSNVEEQEDQPTAGQADAEKAKSTKNQRKTKGAKGTFHCDVCMFTSSRMSSFNRHMKTHTSEKPHLCHLCLKTFRTVTLLRNHVNTHTGTRPYKCNDCNMAFVTSGELVRHRRYKHTHEKPFKCSMCKYASVEASKLKRHVRSHTGERPFQCCQCSYASRDTYKLKRHMRTHSGEKPYECHICHTRFTQSGTMKIHILQKHGENVPKYQCPHCATIIARKSDLRVHMRNLHAYSAAELKCRYCSAVFHERYALIQHQKTHKNEKRFKCKHCSYACKQERHMTAHIRTHTGEKPFTCLSCNKCFRQKQLLNAHFRKYHDANFIPTVYKCSKCGKGFSRWINLHRHSEKCGSGEAKSAASGKGRRTRKRKQTILKEATKGQKEAAKGWKEAANGDEAAAEEASTTKGEQFPGEMFPVACRETTARVKEEVDEGVTCEMLLNTMDK
For B4, the “TSA Expression Rate (ER)” value is 9% (BRAIN); 74% (BREAST); 55% (HCC); 36% (LUNG); 82% (OVARIAN); 29% (PANCREATIC). For the same molecule, the “Expression Rate (ER) %” value is recorded as 80% (TSA expression rate in CRC); 32% under setting [5]; 56% under setting [1]; 27% under setting [6]; 98% under setting [4].

B5: ADAM2 (protein, UniProt Q99965 175-735, looked up)
Disintegrin and …: DFAKYIEMHVIVEKQLYNHMGSDTTVVAQKVFQLIGLTNAIFVSFNITIILSSLELWIDENKIATTGEANELLHTFLRWKTSYLVLRPHDVAFLLVYREKSNYVGATFQGKMCDANYAGGVVLHPRTISLESLAVILAQLLSLSMGITYDDINKCQCSGAVCIMNPEAIHFSGVKIFSNCSFEDFAHFISKQKSQCLHNQPRLDPFFKQQAVCGNAKLEAGEECDCGTEQDCALIGETCCDIATCRFKAGSNCAEGPCCENCLFMSKERMCRPSFEECDLPEYCNGSSASCPENHYVQTGHPCGLNQWICIDGVCMSGDKQCTDTFGKEVEFGPSECYSHLNSKTDVSGNCGISDSGYTQCEADNLQCGKLICKYVGKFLLQIPRATIIYANISGHLCIAVEFASDHADSQKMWIKDGTSCGSNKVCRNQRCVSSSYLGYDCTTDKCNDRGVCNNKKHCHCSASYLPPDCSVQSDLWPGGSIDSGNFPPVAIPARLPERRYIENIYHSKPMRWPFFLFIPFFIIFCVLIAIMVKVNFQRKKWRTEDYSSDEQPESESEPKG
Turning to B5, the “TSA Expression Rate (ER)” value by setting is: (BREAST) 0%; (OVARIAN) 0%. The “Expression Rate (ER) %” value is, setting by setting: (TSA expression rate in CRC) 0%; under setting [5], 0%; (TSA expression rate in Kidney) 9%; (TSA expression rate in LEUKEMIAS) 6%; under setting [7], 1%; under setting [6], 3%. Under setting [4], the “Expression Rate (ER) %” value is reported as 25%.

B6: CCDC110 (protein, UniProt Q8TBZ0 1-833, looked up)
Coiled-coil domain-containing …: MSPEKQHREEDEVDSVLLSASKILNSSEGVKESGCSDTEYGCIAESENQIQPQSALKVLQQQLESFQALRMQTLQNVSMVQSEISEILNKSIIEVENPQFSSEKNLVFGTRIEKDLPTENQEENLSMEKSHHFEDSKTLHSVEEKLSGDSVNSLPQSVNVPSQIHSEDTLTLRTSTDNLSSNIIIHPSENSDILKNYNNFYRFLPTAPPNVMSQADTVILDKSKITVPFLKHGFCENLDDICHSIKQMKEELQKSHDGEVALTNELQTLQTDPDVHRNGKYDMSPIHQDKMNFIKEENLDGNLNEDIKSKRISELEALVKKLLPFRETVSKFHVHFCRKCKKLSKSEMHRGKKNEKNNKEIPITGKNITDLKFHSRVPRYTLSFLDQTKHEMKDKERQPFLVKQGSIISENEKTSKVNSVTEQCVAKIQYLQNYLKESVQIQKKVMELESENLNLKSKMKPLIFTTQSLIQKVETYEKQLKNLVEEKSTIQSKLSKTEEYSKECLKEFKKIISKYNVLQGQNKTLEEKNIQLSLEKQQMMEALDQLKSKEHKTQSDMAIVNNENNRMSIEMEAMKTNILLIQDEKEMLEKKTHQLLKEKSSLGNELKESQLEIIQLKEKERLAKTEQETLLQIIETVKDEKLNLETTLQESTAARQIMEREIENIQTYQSTAEENFLQEIKNAKSEASIYKNSLSEIGKECEMLSKMVMETKTDNQILKEELKKHSQENIKFENSISRLTEDKILLENYVRSIENERDTLEFEMRHLQREYLSLSDKICNQHNDPSKTTYISRREKFHFDNYTHEDTSSPQSRPLASDLKGYFKVKDRTLKHH
As to B6, the “TSA Expression Rate (ER)” value is, setting by setting: (HCC) 50%; (LUNG) 50%; (PANCREATIC) 100%. Besides, the “Expression Rate (ER) %” value is, setting by setting: (TSA expression rate in CRC) 50%; under setting [2], 100%; under setting [3], 67%; under setting [6], 60%.
